Laboratory results from patent publication US10113152B1, “Variant polypeptides capable of aminating aliphatic alpha keto acids” (AbbVie Inc., priority 2014, dated 2018).

assay: Reductive amination of 2-oxonon-8-enoic acid to (S)-LCAA by leucine dehydrogenase (NADH consumption at 340 nm, HPLC of aliquots); assay type: biochemical; conditions: reaction described in Example 1; conversion of 2-oxonon-8-enoic acid to (S)-LCAA
Procedure: To produce (S)-LCAA from 2-oxonon-8-enoic acid, a reaction was performed under the following conditions. In 200 mL total volume and a buffered pH of 9.5, the aqueous reaction mixture contained 10 mM 2-oxonon-8-enoic acid, 12 mM glucose, 1 mM NAD^+, 50 mg of purified glucose dehydrogenase (GDH-105; Codexis, Redwood City, Calif.), 2 M NH4Cl/OH, and approximately 60 mL/L of purified leucine dehydrogenase cell-free extract. FIG. 2 depicts the reaction scheme for converting 2-oxonon-8-enoic acid to (S)-LCAA using leucine dehydrogenase. The mixture was incubated at 30° C. and with shaking at 150 rpm for four hours.
Enzyme activity was measured spectrophotometrically by monitoring the consumption of NADH in the reductive amination at 340 nm. Activity was defined as the number of micromoles of NADH consumed in 1 minute (μmol min^−1). Aliquots of the reaction mixture were obtained periodically during the course of the reaction and subjected to analysis by high performance liquid chromatography (HPLC).
To increase the affinity of LDH for the 2-oxonon-8-enoic acid substrate and, thus, enhance the enzyme's activity for producing (S)-LCAA, amino acid substitutions were made within the region of LDH that binds to the substrate. Specifically, amino acid substitutions were introduced at position 42 of B. cereus leucine dehydrogenase (SEQ ID NO:1) using standard mutagenesis techniques. Wild-type B. cereus LDH, along with 19 variants (one for each amino acid substitution at position 42) were expressed and isolated as described in Example 1. The enzymatic activity of the variant proteins was evaluated alongside wild-type B. cereus LDH in the reaction described in Example 1. […] While the disclosure is not bound by any particular theory or mechanism of action, the substitutions that increased the enzymatic activity of the LDH enzyme are believed to have increased the depth of the substrate binding pocket in LDH and thereby increased the affinity of LDH for the 2-oxonon-8-enoic acid substrate.

Molecule | increase in reaction rate relative to wild-type B. cereus LDH
L42V: variant B. cereus leucine dehydrogenase, leucine at position 42 substituted by valine, SEQ ID NO:5 (protein) MTLEIFEYLEKYDYEQVVFCQDKESGLKAIIAIHDTTLGPAVGGTRMWTYDSEEAAIEDALRLAKGMTYKNAAAGLNLGGAKTVIIGDPRKDKSEAMFRALGRYIQGLNGRYITAEDVGTTVDDMDIIHEETDFVTGISPSFGSSGNPSPVTAYGVYRGMKAAAKEAFGTDNLEGKVIAVQGVGNVAYHLCKHLHAEGAKLIVTDINKEAVQRAVEEFGASAVEPNEIYGVECDIYAPCALGATVNDETIPQLKAKVIAGSANNQLKEDRHGDIIHEMGIVYAPDYVINAGGVINVADELYGYNRERALKRVESIYDTIAKVIEISKRDGIATYVAADRLAEERIASLKNSRSTYLRNGHDIISRR | approximately 1×10^3
L42G: variant B. cereus leucine dehydrogenase, leucine at position 42 substituted by glycine, SEQ ID NO:6 (protein) MTLEIFEYLEKYDYEQVVFCQDKESGLKAIIAIHDTTLGPAGGGTRMWTYDSEEAAIEDALRLAKGMTYKNAAAGLNLGGAKTVIIGDPRKDKSEAMFRALGRYIQGLNGRYITAEDVGTTVDDMDIIHEETDFVTGISPSFGSSGNPSPVTAYGVYRGMKAAAKEAFGTDNLEGKVIAVQGVGNVAYHLCKHLHAEGAKLIVTDINKEAVQRAVEEFGASAVEPNEIYGVECDIYAPCALGATVNDETIPQLKAKVIAGSANNQLKEDRHGDIIHEMGIVYAPDYVINAGGVINVADELYGYNRERALKRVESIYDTIAKVIEISKRDGIATYVAADRLAEERIASLKNSRSTYLRNGHDIISRR | approximately 1×10^3

same assay, conditions: reaction described in Example 1; conversion of 2-oxonon-8-enoic acid to (S)-LCAA; FIG. 5

Molecule | enzymatic activity (reaction rate) relative to wild-type B. cereus LDH
L42I: variant B. cereus leucine dehydrogenase, leucine at position 42 substituted by isoleucine, SEQ ID NO:4 (protein) MTLEIFEYLEKYDYEQVVFCQDKESGLKAIIAIHDTTLGPAIGGTRMWTYDSEEAAIEDALRLAKGMTYKNAAAGLNLGGAKTVIIGDPRKDKSEAMFRALGRYIQGLNGRYITAEDVGTTVDDMDIIHEETDFVTGISPSFGSSGNPSPVTAYGVYRGMKAAAKEAFGTDNLEGKVIAVQGVGNVAYHLCKHLHAEGAKLIVTDINKEAVQRAVEEFGASAVEPNEIYGVECDIYAPCALGATVNDETIPQLKAKVIAGSANNQLKEDRHGDIIHEMGIVYAPDYVINAGGVINVADELYGYNRERALKRVESIYDTIAKVIEISKRDGIATYVAADRLAEERIASLKNSRSTYLRNGHDIISRR | significantly enhanced activity
L42V: variant B. cereus leucine dehydrogenase, leucine at position 42 substituted by valine, SEQ ID NO:5 (protein) MTLEIFEYLEKYDYEQVVFCQDKESGLKAIIAIHDTTLGPAVGGTRMWTYDSEEAAIEDALRLAKGMTYKNAAAGLNLGGAKTVIIGDPRKDKSEAMFRALGRYIQGLNGRYITAEDVGTTVDDMDIIHEETDFVTGISPSFGSSGNPSPVTAYGVYRGMKAAAKEAFGTDNLEGKVIAVQGVGNVAYHLCKHLHAEGAKLIVTDINKEAVQRAVEEFGASAVEPNEIYGVECDIYAPCALGATVNDETIPQLKAKVIAGSANNQLKEDRHGDIIHEMGIVYAPDYVINAGGVINVADELYGYNRERALKRVESIYDTIAKVIEISKRDGIATYVAADRLAEERIASLKNSRSTYLRNGHDIISRR | significantly enhanced activity
L42G: variant B. cereus leucine dehydrogenase, leucine at position 42 substituted by glycine, SEQ ID NO:6 (protein) MTLEIFEYLEKYDYEQVVFCQDKESGLKAIIAIHDTTLGPAGGGTRMWTYDSEEAAIEDALRLAKGMTYKNAAAGLNLGGAKTVIIGDPRKDKSEAMFRALGRYIQGLNGRYITAEDVGTTVDDMDIIHEETDFVTGISPSFGSSGNPSPVTAYGVYRGMKAAAKEAFGTDNLEGKVIAVQGVGNVAYHLCKHLHAEGAKLIVTDINKEAVQRAVEEFGASAVEPNEIYGVECDIYAPCALGATVNDETIPQLKAKVIAGSANNQLKEDRHGDIIHEMGIVYAPDYVINAGGVINVADELYGYNRERALKRVESIYDTIAKVIEISKRDGIATYVAADRLAEERIASLKNSRSTYLRNGHDIISRR | significantly enhanced activity
L42A: variant B. cereus leucine dehydrogenase, leucine at position 42 substituted by alanine, SEQ ID NO:20 (protein) MTLEIFEYLEKYDYEQVVFCQDKESGLKAIIAIHDTTLGPAAGGTRMWTYDSEEAAIEDALRLAKGMTYKNAAAGLNLGGAKTVIIGDPRKDKSEAMFRALGRYIQGLNGRYITAEDVGTTVDDMDIIHEETDFVTGISPSFGSSGNPSPVTAYGVYRGMKAAAKEAFGTDNLEGKVIAVQGVGNVAYHLCKHLHAEGAKLIVTDINKEAVQRAVEEFGASAVEPNEIYGVECDIYAPCALGATVNDETIPQLKAKVIAGSANNQLKEDRHGDIIHEMGIVYAPDYVINAGGVINVADELYGYNRERALKRVESIYDTIAKVIEISKRDGIATYVAADRLAEERIASLKNSRSTYLRNGHDIISRR | enhanced activity
L42H: variant B. cereus leucine dehydrogenase (SEQ ID NO:1) with histidine at position 42 (protein, listed as Bacillus cereus) MTLEIFEYLEKYDYEQVVFCQDKESGLKAIIAIHDTTLGPAHGGTRMWTYDSEEAAIEDALRLAKGMTYKNAAAGLNLGGAKTVIIGDPRKDKSEAMFRALGRYIQGLNGRYITAEDVGTTVDDMDIIHEETDFVTGISPSFGSSGNPSPVTAYGVYRGMKAAAKEAFGTDNLEGKVIAVQGVGNVAYHLCKHLHAEGAKLIVTDINKEAVQRAVEEFGASAVEPNEIYGVECDIYAPCALGATVNDETIPQLKAKVIAGSANNQLKEDRHGDIIHEMGIVYAPDYVINAGGVINVADELYGYNRERALKRVESIYDTIAKVIEISKRDGIATYVAADRLAEERIASLKNSRSTYLRNGHDIISRR | reduced activity
L42T: variant B. cereus leucine dehydrogenase (SEQ ID NO:1) with threonine at position 42 (protein, listed as Bacillus cereus) MTLEIFEYLEKYDYEQVVFCQDKESGLKAIIAIHDTTLGPATGGTRMWTYDSEEAAIEDALRLAKGMTYKNAAAGLNLGGAKTVIIGDPRKDKSEAMFRALGRYIQGLNGRYITAEDVGTTVDDMDIIHEETDFVTGISPSFGSSGNPSPVTAYGVYRGMKAAAKEAFGTDNLEGKVIAVQGVGNVAYHLCKHLHAEGAKLIVTDINKEAVQRAVEEFGASAVEPNEIYGVECDIYAPCALGATVNDETIPQLKAKVIAGSANNQLKEDRHGDIIHEMGIVYAPDYVINAGGVINVADELYGYNRERALKRVESIYDTIAKVIEISKRDGIATYVAADRLAEERIASLKNSRSTYLRNGHDIISRR | enhanced activity
L42S: variant B. cereus leucine dehydrogenase (SEQ ID NO:1) with serine at position 42 (protein, listed as Bacillus cereus) MTLEIFEYLEKYDYEQVVFCQDKESGLKAIIAIHDTTLGPASGGTRMWTYDSEEAAIEDALRLAKGMTYKNAAAGLNLGGAKTVIIGDPRKDKSEAMFRALGRYIQGLNGRYITAEDVGTTVDDMDIIHEETDFVTGISPSFGSSGNPSPVTAYGVYRGMKAAAKEAFGTDNLEGKVIAVQGVGNVAYHLCKHLHAEGAKLIVTDINKEAVQRAVEEFGASAVEPNEIYGVECDIYAPCALGATVNDETIPQLKAKVIAGSANNQLKEDRHGDIIHEMGIVYAPDYVINAGGVINVADELYGYNRERALKRVESIYDTIAKVIEISKRDGIATYVAADRLAEERIASLKNSRSTYLRNGHDIISRR | enhanced activity
L42D: variant B. cereus leucine dehydrogenase (SEQ ID NO:1) with aspartic acid at position 42 (protein, listed as Bacillus cereus) MTLEIFEYLEKYDYEQVVFCQDKESGLKAIIAIHDTTLGPADGGTRMWTYDSEEAAIEDALRLAKGMTYKNAAAGLNLGGAKTVIIGDPRKDKSEAMFRALGRYIQGLNGRYITAEDVGTTVDDMDIIHEETDFVTGISPSFGSSGNPSPVTAYGVYRGMKAAAKEAFGTDNLEGKVIAVQGVGNVAYHLCKHLHAEGAKLIVTDINKEAVQRAVEEFGASAVEPNEIYGVECDIYAPCALGATVNDETIPQLKAKVIAGSANNQLKEDRHGDIIHEMGIVYAPDYVINAGGVINVADELYGYNRERALKRVESIYDTIAKVIEISKRDGIATYVAADRLAEERIASLKNSRSTYLRNGHDIISRR | reduced activity
L42K: variant B. cereus leucine dehydrogenase (SEQ ID NO:1) with lysine at position 42 (protein, listed as Bacillus cereus) MTLEIFEYLEKYDYEQVVFCQDKESGLKAIIAIHDTTLGPAKGGTRMWTYDSEEAAIEDALRLAKGMTYKNAAAGLNLGGAKTVIIGDPRKDKSEAMFRALGRYIQGLNGRYITAEDVGTTVDDMDIIHEETDFVTGISPSFGSSGNPSPVTAYGVYRGMKAAAKEAFGTDNLEGKVIAVQGVGNVAYHLCKHLHAEGAKLIVTDINKEAVQRAVEEFGASAVEPNEIYGVECDIYAPCALGATVNDETIPQLKAKVIAGSANNQLKEDRHGDIIHEMGIVYAPDYVINAGGVINVADELYGYNRERALKRVESIYDTIAKVIEISKRDGIATYVAADRLAEERIASLKNSRSTYLRNGHDIISRR | reduced activity
L42Y: variant B. cereus leucine dehydrogenase (SEQ ID NO:1) with tyrosine at position 42 (protein, listed as Bacillus cereus) MTLEIFEYLEKYDYEQVVFCQDKESGLKAIIAIHDTTLGPAYGGTRMWTYDSEEAAIEDALRLAKGMTYKNAAAGLNLGGAKTVIIGDPRKDKSEAMFRALGRYIQGLNGRYITAEDVGTTVDDMDIIHEETDFVTGISPSFGSSGNPSPVTAYGVYRGMKAAAKEAFGTDNLEGKVIAVQGVGNVAYHLCKHLHAEGAKLIVTDINKEAVQRAVEEFGASAVEPNEIYGVECDIYAPCALGATVNDETIPQLKAKVIAGSANNQLKEDRHGDIIHEMGIVYAPDYVINAGGVINVADELYGYNRERALKRVESIYDTIAKVIEISKRDGIATYVAADRLAEERIASLKNSRSTYLRNGHDIISRR | reduced activity
